Laboratory results taken from PMC7666136.

B1: eGFP-53BP1 (wild-type TP53-binding protein 1 tagged with enhanced green fluorescent protein) [not stated] / itself (parent)
chain: MDPTGSQLDSDFSQQDTPCLIIEDSQPESQVLEDDSGSHFSMLSRHLPNLQTHKENPVLDVVSNPEQTAGEERGDGNSGFNEHLKENKVADPVDSSNLDTCGSISQVIEQLPQPNRTSSVLGMSVESAPAVEEEKGEELEQKEKEKEEDTSGNTTHSLGAEDTASSQLGFGVLELSQSQDVEENTVPYEVDKEQLQSVTTNSGYTRLSDVDANTAIKHEEQSNEDIPIAEQSSKDIPVTAQPSKDVHVVKEQNPPPARSEDMPFSPKASVAAMEAKEQLSAQELMESGLQIQKSPEPEVLSTQEDLFDQSNKTVSSDGCSTPSREEGGCSLASTPATTLHLLQLSGQRSLVQDSLSTNSSDLVAPSPDAFRSTPFIVPSSPTEQEGRQDKPMDTSVLSEEGGEPFQKKLQSGEPVELENPPLLPESTVSPQASTPISQSTPVFPPGSLPIPSQPQFSHDIFIPSPSLEEQSNDGKKDGDMHSSSLTVECSKTSEIEPKNSPEDLGLSLTGDSCKLMLSTSEYSQSPKMESLSSHRIDEDGENTQIEDTEPMSPVLNSKFVPAENDSILMNPAQDGEVQLSQNDDKTKGDDTDTRDDISILATGCKGREETVAEDVCIDLTCDSGSQAVPSPATRSEALSSVLDQEEAMEIKEHHPEEGSSGSEVEEIPETPCESQGEELKEENMESVPLHLSLTETQSQGLCLQKEMPKKECSEAMEVETSVISIDSPQKLAILDQELEHKEQEAWEEATSEDSSVVIVDVKEPSPRVDVSCEPLEGVEKCSDSQSWEDIAPEIEPCAENRLDTKEEKSVEYEGDLKSGTAETEPVEQDSSQPSLPLVRADDPLRLDQELQQPQTQEKTSNSLTEDSKMANAKQLSSDAEAQKLGKPSAHASQSFCESSSETPFHFTLPKEGDIIPPLTGATPPLIGHLKLEPKRHSTPIGISNYPESTIATSDVMSESMVETHDPILGSGKGDSGAAPDVDDKLCLRMKLVSPETEASEESLQFNLEKPATGERKNGSTAVAESVASPQKTMSVLSCICEARQENEARSEDPPTTPIRGNLLHFPSSQGEEEKEKLEGDHTIRQSQQPMKPISPVKDPVSPASQKMVIQGPSSPQGEAMVTDVLEDQKEGRSTNKENPSKALIERPSQNNIGIQTMECSLRVPETVSAATQTIKNVCEQGTSTVDQNFGKQDATVQTERGSGEKPVSAPGDDTESLHSQGEEEFDMPQPPHGHVLHRHMRTIREVRTLVTRVITDVYYVDGTEVERKVTEETEEPIVECQECETEVSPSQTGGSSGDLGDISSFSSKASSLHRTSSGTSLSAMHSSGSSGKGAGPLRGKTSGTEPADFALPSSRGGPGKLSPRKGVSQTGTPVCEEDGDAGLGIRQGGKAPVTPRGRGRRGRPPSRTTGTRETAVPGPLGIEDISPNLSPDDKSFSRVVPRVPDSTRRTDVGAGALRRSDSPEIPFQAAAGPSDGLDASSPGNSFVGLRVVAKWSSNGYFYSGKITRDVGAGKYKLLFDDGYECDVLGKDILLCDPIPLDTEVTALSEDEYFSAGVVKGHRKESGELYYSIEKEGQRKWYKRMAVILSLEQGNRLREQYGLGPYEAVTPLTKAADISLDNLVEGKRKRRSNVSSPATPTASSSSSTTPTRKITESPRASMGVLSGKRKLITSEEERSPAKRGRKSATVKPGAVGAGEFVSPCESGDNTGEPSALEEQRGPLPLNKTLFLGYAFLLTMATTSDKLASRSKLPDGPTGSSEEEEEFLEIPPFNKQYTESQLRAGAGYILEDFNEAQCNTAYQCLLIADQHCRTRKYFLCLASGIPCVSHVWVHDSCHANQLQNYRNYLLPAGYSLEEQRILDWQPRENPFQNLKVLLVSDQQQNFLELWSEILMTGGAASVKQHHSSAHNKDIALGVFDVVVTDPSCPASVLKCAEALQLPVVSQEWVIQCLIVGERIGFKQHPKYKHDYVSH

Variants of: B1
Experiment: Homo-FRET (FAIM, fluorescence anisotropy imaging) in live DIvA cells
Conditions: with itself; live DIvA cell nuclei, N = 5 cells, two biological replicates; value is the box median; read off a plot

Which screen value does the source give for chain 1 Y1258A Y1259A here?
Its screen value is 0.01 delta r.
